Laboratory results from patent US20140087995A1 (published 2014).
Numbered stars: 1 amine (or outer) side, 2 acyl side, 3 side chain; on linkers, the order of the positions; unused ones are H or OH. Bridge positions count the residues as written; N and C are the ends. Side chains are listed from the residue outwards. Ends that are not written are not given here. * marks the point of attachment. C20 diacid = O=C(O)CCCCCCCCCCCCCCCCCCC(=O)*; γGlu = O=C(O)[C@H](CCC(=O)[*:2])N[*:1]; AEEA = NCCOCCOCC(=O)O

T1: human calcitonin receptor (human, UniProt P30988 25-474)
T1 sequence (looked up): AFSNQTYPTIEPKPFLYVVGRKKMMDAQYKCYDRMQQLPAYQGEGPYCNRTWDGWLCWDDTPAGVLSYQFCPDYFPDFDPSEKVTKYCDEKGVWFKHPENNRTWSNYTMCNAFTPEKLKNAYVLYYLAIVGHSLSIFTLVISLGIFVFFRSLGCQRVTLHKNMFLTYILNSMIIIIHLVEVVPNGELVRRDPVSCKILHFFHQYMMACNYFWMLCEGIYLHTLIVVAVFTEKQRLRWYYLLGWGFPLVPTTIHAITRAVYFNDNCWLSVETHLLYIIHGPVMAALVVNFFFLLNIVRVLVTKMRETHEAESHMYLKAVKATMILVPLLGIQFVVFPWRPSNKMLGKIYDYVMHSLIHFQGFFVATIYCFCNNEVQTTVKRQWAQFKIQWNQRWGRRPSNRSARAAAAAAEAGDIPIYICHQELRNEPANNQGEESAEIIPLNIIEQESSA

T2: human amylin receptor (amylin 3(a) receptor: human calcitonin receptor co-expressed with RAMP-3) (human, UniProt P30988 25-474; O60896 24-148, limits assumed)
T2 sequence (looked up) 1: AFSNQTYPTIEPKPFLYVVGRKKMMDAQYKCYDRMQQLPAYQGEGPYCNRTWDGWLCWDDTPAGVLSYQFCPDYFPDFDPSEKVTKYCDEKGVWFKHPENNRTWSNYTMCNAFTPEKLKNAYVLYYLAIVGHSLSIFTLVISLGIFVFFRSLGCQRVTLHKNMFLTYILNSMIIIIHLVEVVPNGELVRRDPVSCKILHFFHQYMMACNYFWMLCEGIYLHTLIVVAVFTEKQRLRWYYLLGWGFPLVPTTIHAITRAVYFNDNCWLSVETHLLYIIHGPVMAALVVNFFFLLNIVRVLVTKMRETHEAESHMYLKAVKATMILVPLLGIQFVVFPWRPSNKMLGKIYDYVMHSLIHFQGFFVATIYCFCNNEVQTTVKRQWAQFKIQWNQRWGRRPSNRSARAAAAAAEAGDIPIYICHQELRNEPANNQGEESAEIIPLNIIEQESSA
T2 sequence (looked up) 2: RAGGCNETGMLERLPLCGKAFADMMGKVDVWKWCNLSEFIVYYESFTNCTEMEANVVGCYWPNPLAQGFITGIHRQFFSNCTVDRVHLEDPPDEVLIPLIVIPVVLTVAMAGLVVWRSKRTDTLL


Key:
[1] = molecular target: T1, human calcitonin receptor; assay: cell-based or functional assay
[2] = molecular target: T2, human amylin receptor (amylin 3(a) …); assay: cell-based or functional assay

| Ratio hCT/hAmylin funct. (hCTR EC50 against hAmylin-R EC50) [1] | hCTR funct. EC50 [1] [nM] | hAmylin-R funct. EC50 [2] [nM] | Binder |
| --- | --- | --- | --- |
| 35 | 3.12 | 0.089 | K([AEEA-γGlu-C20 diacid])CNTATCATQRLANFLRHSSPNFGAIPSSTPVGSHTY-NH2 (disulfide 2-7; N-terminus assumed; SMILES CC[C@H](C)[C@H](NC(=O)[C@H](C)NC(=O)CNC(=O)[C@H](Cc1ccccc1)NC(=O)[C@H](CC(N)=O)NC(=O)[C@@H]1CCCN1C(=O)[C@H](CO)NC(=O)[C@H](CO)NC(=O)[C@H](Cc1c[nH]cn1)NC(=O)[C@H](CCCNC(=N)N)NC(=O)[C@H](CC(C)C)NC(=O)[C@H](Cc1ccccc1)NC(=O)[C@H](CC(N)=O)NC(=O)[C@H](C)NC(=O)[C@H](CC(C)C)NC(=O)[C@H](CCCNC(=N)N)NC(=O)[C@H](CCC(N)=O)NC(=O)[C@@H](NC(=O)[C@H](C)NC(=O)[C@@H]1CSSC[C@H](NC(=O)[C@@H](N)CCCCNC(=O)COCCOCCNC(=O)CC[C@H](NC(=O)CCCCCCCCCCCCCCCCCCC(=O)O)C(=O)O)C(=O)N[C@@H](CC(N)=O)C(=O)N[C@@H]([C@@H](C)O)C(=O)N[C@@H](C)C(=O)N[C@@H]([C@@H](C)O)C(=O)N1)[C@@H](C)O)C(=O)N1CCC[C@H]1C(=O)N[C@@H](CO)C(=O)N[C@@H](CO)C(=O)N[C@H](C(=O)N1CCC[C@H]1C(=O)N[C@H](C(=O)NCC(=O)N[C@@H](CO)C(=O)N[C@@H](Cc1c[nH]cn1)C(=O)N[C@H](C(=O)N[C@@H](Cc1ccc(O)cc1)C(N)=O)[C@@H](C)O)C(C)C)[C@@H](C)O, also called compound 57) |
| 21.9 | 1.03 | 0.047 | K([AEEA-γGlu-C20 diacid])CNTATCATQRLANFLRHSSPNFGAIPSSTNVGPHTY-NH2 (disulfide 2-7; N-terminus assumed; SMILES CC[C@H](C)[C@H](NC(=O)[C@H](C)NC(=O)CNC(=O)[C@H](Cc1ccccc1)NC(=O)[C@H](CC(N)=O)NC(=O)[C@@H]1CCCN1C(=O)[C@H](CO)NC(=O)[C@H](CO)NC(=O)[C@H](Cc1c[nH]cn1)NC(=O)[C@H](CCCNC(=N)N)NC(=O)[C@H](CC(C)C)NC(=O)[C@H](Cc1ccccc1)NC(=O)[C@H](CC(N)=O)NC(=O)[C@H](C)NC(=O)[C@H](CC(C)C)NC(=O)[C@H](CCCNC(=N)N)NC(=O)[C@H](CCC(N)=O)NC(=O)[C@@H](NC(=O)[C@H](C)NC(=O)[C@@H]1CSSC[C@H](NC(=O)[C@@H](N)CCCCNC(=O)COCCOCCNC(=O)CC[C@H](NC(=O)CCCCCCCCCCCCCCCCCCC(=O)O)C(=O)O)C(=O)N[C@@H](CC(N)=O)C(=O)N[C@@H]([C@@H](C)O)C(=O)N[C@@H](C)C(=O)N[C@@H]([C@@H](C)O)C(=O)N1)[C@@H](C)O)C(=O)N1CCC[C@H]1C(=O)N[C@@H](CO)C(=O)N[C@@H](CO)C(=O)N[C@H](C(=O)N[C@@H](CC(N)=O)C(=O)N[C@H](C(=O)NCC(=O)N1CCC[C@H]1C(=O)N[C@@H](Cc1c[nH]cn1)C(=O)N[C@H](C(=O)N[C@@H](Cc1ccc(O)cc1)C(N)=O)[C@@H](C)O)C(C)C)[C@@H](C)O, also called compound 58) |
| 22.5 | 2.39 | 0.106 | K([AEEA-γGlu-C20 diacid])CNTATCATQRLANFLRHSSPNFGAIPSSTPVGSNTY-NH2 (disulfide 2-7; N-terminus assumed; SMILES CC[C@H](C)[C@H](NC(=O)[C@H](C)NC(=O)CNC(=O)[C@H](Cc1ccccc1)NC(=O)[C@H](CC(N)=O)NC(=O)[C@@H]1CCCN1C(=O)[C@H](CO)NC(=O)[C@H](CO)NC(=O)[C@H](Cc1c[nH]cn1)NC(=O)[C@H](CCCNC(=N)N)NC(=O)[C@H](CC(C)C)NC(=O)[C@H](Cc1ccccc1)NC(=O)[C@H](CC(N)=O)NC(=O)[C@H](C)NC(=O)[C@H](CC(C)C)NC(=O)[C@H](CCCNC(=N)N)NC(=O)[C@H](CCC(N)=O)NC(=O)[C@@H](NC(=O)[C@H](C)NC(=O)[C@@H]1CSSC[C@H](NC(=O)[C@@H](N)CCCCNC(=O)COCCOCCNC(=O)CC[C@H](NC(=O)CCCCCCCCCCCCCCCCCCC(=O)O)C(=O)O)C(=O)N[C@@H](CC(N)=O)C(=O)N[C@@H]([C@@H](C)O)C(=O)N[C@@H](C)C(=O)N[C@@H]([C@@H](C)O)C(=O)N1)[C@@H](C)O)C(=O)N1CCC[C@H]1C(=O)N[C@@H](CO)C(=O)N[C@@H](CO)C(=O)N[C@H](C(=O)N1CCC[C@H]1C(=O)N[C@H](C(=O)NCC(=O)N[C@@H](CO)C(=O)N[C@@H](CC(N)=O)C(=O)N[C@H](C(=O)N[C@@H](Cc1ccc(O)cc1)C(N)=O)[C@@H](C)O)C(C)C)[C@@H](C)O, also called compound 49) |

The remaining lines, values behind:

| Binder | Ratio hCT/hAmylin funct. (hCTR EC50 against hAmylin-R EC50) [1] | hCTR funct. EC50 [1] [nM] | hAmylin-R funct. EC50 [2] [nM] |
| --- | --- | --- | --- |
| K([AEEA-γGlu-C20 diacid])CNTATCATQRLANFLRHSSPNFGAIPPSTNVGPNTY-NH2 (disulfide 2-7; N-terminus assumed; SMILES CC[C@H](C)[C@H](NC(=O)[C@H](C)NC(=O)CNC(=O)[C@H](Cc1ccccc1)NC(=O)[C@H](CC(N)=O)NC(=O)[C@@H]1CCCN1C(=O)[C@H](CO)NC(=O)[C@H](CO)NC(=O)[C@H](Cc1c[nH]cn1)NC(=O)[C@H](CCCNC(=N)N)NC(=O)[C@H](CC(C)C)NC(=O)[C@H](Cc1ccccc1)NC(=O)[C@H](CC(N)=O)NC(=O)[C@H](C)NC(=O)[C@H](CC(C)C)NC(=O)[C@H](CCCNC(=N)N)NC(=O)[C@H](CCC(N)=O)NC(=O)[C@@H](NC(=O)[C@H](C)NC(=O)[C@@H]1CSSC[C@H](NC(=O)[C@@H](N)CCCCNC(=O)COCCOCCNC(=O)CC[C@H](NC(=O)CCCCCCCCCCCCCCCCCCC(=O)O)C(=O)O)C(=O)N[C@@H](CC(N)=O)C(=O)N[C@@H]([C@@H](C)O)C(=O)N[C@@H](C)C(=O)N[C@@H]([C@@H](C)O)C(=O)N1)[C@@H](C)O)C(=O)N1CCC[C@H]1C(=O)N1CCC[C@H]1C(=O)N[C@@H](CO)C(=O)N[C@H](C(=O)N[C@@H](CC(N)=O)C(=O)N[C@H](C(=O)NCC(=O)N1CCC[C@H]1C(=O)N[C@@H](CC(N)=O)C(=O)N[C@H](C(=O)N[C@@H](Cc1ccc(O)cc1)C(N)=O)[C@@H](C)O)C(C)C)[C@@H](C)O, also called compound 55) | 10.8 | 0.731 | 0.068 |
| K([AEEA-γGlu-C20 diacid])CNTATCATQRLANFLRHSSPNFGAIPSPTNVGPNTY-NH2 (disulfide 2-7; N-terminus assumed; SMILES CC[C@H](C)[C@H](NC(=O)[C@H](C)NC(=O)CNC(=O)[C@H](Cc1ccccc1)NC(=O)[C@H](CC(N)=O)NC(=O)[C@@H]1CCCN1C(=O)[C@H](CO)NC(=O)[C@H](CO)NC(=O)[C@H](Cc1c[nH]cn1)NC(=O)[C@H](CCCNC(=N)N)NC(=O)[C@H](CC(C)C)NC(=O)[C@H](Cc1ccccc1)NC(=O)[C@H](CC(N)=O)NC(=O)[C@H](C)NC(=O)[C@H](CC(C)C)NC(=O)[C@H](CCCNC(=N)N)NC(=O)[C@H](CCC(N)=O)NC(=O)[C@@H](NC(=O)[C@H](C)NC(=O)[C@@H]1CSSC[C@H](NC(=O)[C@@H](N)CCCCNC(=O)COCCOCCNC(=O)CC[C@H](NC(=O)CCCCCCCCCCCCCCCCCCC(=O)O)C(=O)O)C(=O)N[C@@H](CC(N)=O)C(=O)N[C@@H]([C@@H](C)O)C(=O)N[C@@H](C)C(=O)N[C@@H]([C@@H](C)O)C(=O)N1)[C@@H](C)O)C(=O)N1CCC[C@H]1C(=O)N[C@@H](CO)C(=O)N1CCC[C@H]1C(=O)N[C@H](C(=O)N[C@@H](CC(N)=O)C(=O)N[C@H](C(=O)NCC(=O)N1CCC[C@H]1C(=O)N[C@@H](CC(N)=O)C(=O)N[C@H](C(=O)N[C@@H](Cc1ccc(O)cc1)C(N)=O)[C@@H](C)O)C(C)C)[C@@H](C)O, also called compound 56) | 5 | 0.506 | 0.102 |
| K([AEEA-γGlu-C20 diacid])CNTATCATQRLANFLRHSSPNFGAIPSPTPVGSNTY-NH2 (disulfide 2-7; N-terminus assumed; SMILES CC[C@H](C)[C@H](NC(=O)[C@H](C)NC(=O)CNC(=O)[C@H](Cc1ccccc1)NC(=O)[C@H](CC(N)=O)NC(=O)[C@@H]1CCCN1C(=O)[C@H](CO)NC(=O)[C@H](CO)NC(=O)[C@H](Cc1c[nH]cn1)NC(=O)[C@H](CCCNC(=N)N)NC(=O)[C@H](CC(C)C)NC(=O)[C@H](Cc1ccccc1)NC(=O)[C@H](CC(N)=O)NC(=O)[C@H](C)NC(=O)[C@H](CC(C)C)NC(=O)[C@H](CCCNC(=N)N)NC(=O)[C@H](CCC(N)=O)NC(=O)[C@@H](NC(=O)[C@H](C)NC(=O)[C@@H]1CSSC[C@H](NC(=O)[C@@H](N)CCCCNC(=O)COCCOCCNC(=O)CC[C@H](NC(=O)CCCCCCCCCCCCCCCCCCC(=O)O)C(=O)O)C(=O)N[C@@H](CC(N)=O)C(=O)N[C@@H]([C@@H](C)O)C(=O)N[C@@H](C)C(=O)N[C@@H]([C@@H](C)O)C(=O)N1)[C@@H](C)O)C(=O)N1CCC[C@H]1C(=O)N[C@@H](CO)C(=O)N1CCC[C@H]1C(=O)N[C@H](C(=O)N1CCC[C@H]1C(=O)N[C@H](C(=O)NCC(=O)N[C@@H](CO)C(=O)N[C@@H](CC(N)=O)C(=O)N[C@H](C(=O)N[C@@H](Cc1ccc(O)cc1)C(N)=O)[C@@H](C)O)C(C)C)[C@@H](C)O, also called compound 54) | 9.6 | 0.987 | 0.103 |
